Measurements as given in US20150344570A1 (published 2015).

T1: FcγRIIb extracellular domain with C-terminal His tag (human, UniProt P31994 43-217)
T1 construct: extracellular domain; Soluble receptor expressed in FreeStyle293 cells, used as analyte in Biacore; also called FcgRIIb; 2b
T1 sequence (looked up): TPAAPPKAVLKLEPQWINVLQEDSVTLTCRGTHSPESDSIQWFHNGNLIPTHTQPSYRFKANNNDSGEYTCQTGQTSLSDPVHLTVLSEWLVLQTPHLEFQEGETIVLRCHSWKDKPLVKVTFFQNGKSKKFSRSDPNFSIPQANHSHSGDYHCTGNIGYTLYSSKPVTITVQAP

B1: GpH7-A5/GpH7-B3 variant S298_02A/GpL16-k0 (antibody, human IgG1, kappa)
heavy 1: not shown
heavy 2: not shown
light: DIVMTQSPLSLPVTPGEPASISCQASESLVHSNRNTYLHWYLQKPGQSPQLLIYKVSNRFSGVPDRFSGSGSGTDFTLKISRVEAEDVGVYYCSQNTHVPPTFGQGTKVEIERTVAAPSVFIFPPSDEQLKSGTASVVCLLNNFYPREAKVQWKVDNALQSGNSQESVTEQDSKDSTYSLSSTLTLSKADYEKHKVYACEVTHQGLSSPVTKSFNRGEC
notes: Heterodimerized anti-glypican-3 IgG1; mutation in the GpH7-B3 chain only; also called He Ab
B2: GpH7-A5/GpH7-B3 variant A327_11K/GpL16-k0 (antibody, human IgG1, kappa)
heavy 1: not shown
heavy 2: not shown
light: B1 light
notes: as for B1
B3: GpH7-A5/GpH7-B3 variant A330_03V/GpL16-k0 (antibody, human IgG1, kappa)
heavy 1: not shown
heavy 2: not shown
light: B1 light
notes: as for B1
B4: GpH7-A5/GpH7-B3 variant A330_04F/GpL16-k0 (antibody, human IgG1, kappa)
heavy 1: not shown
heavy 2: not shown
light: B1 light
notes: as for B1
B5: GpH7-A5/GpH7-B3 variant A330_06M/GpL16-k0 (antibody, human IgG1, kappa)
heavy 1: not shown
heavy 2: not shown
light: B1 light
notes: as for B1
B6: GpH7-A5/GpH7-B3 variant A330_07I/GpL16-k0 (antibody, human IgG1, kappa)
heavy 1: not shown
heavy 2: not shown
light: B1 light
notes: as for B1
B7: GpH7-A5/GpH7-B3 variant A330_08L/GpL16-k0 (antibody, human IgG1, kappa)
heavy 1: not shown
heavy 2: not shown
light: B1 light
notes: as for B1
B8: GpH7-A5/GpH7-B3 variant A330_10E/GpL16-k0 (antibody, human IgG1, kappa)
heavy 1: not shown
heavy 2: not shown
light: B1 light
notes: as for B1
B9: GpH7-A5/GpH7-B3 variant A330_15Y/GpL16-k0 (antibody, human IgG1, kappa)
heavy 1: not shown
heavy 2: not shown
light: B1 light
notes: as for B1
B10: GpH7-A5/GpH7-B3 variant A330_20W/GpL16-k0 (antibody, human IgG1, kappa)
heavy 1: not shown
heavy 2: not shown
light: B1 light
notes: as for B1
B11: GpH7-A5/GpH7-B3 variant E333_01G/GpL16-k0 (antibody, human IgG1, kappa)
heavy 1: not shown
heavy 2: not shown
light: B1 light
notes: as for B1
B12: GpH7-A5/GpH7-B3 variant E333_02A/GpL16-k0 (antibody, human IgG1, kappa)
heavy 1: not shown
heavy 2: not shown
light: B1 light
notes: as for B1
B13: GpH7-A5/GpH7-B3 variant E333_13S/GpL16-k0 (antibody, human IgG1, kappa)
heavy 1: not shown
heavy 2: not shown
light: B1 light
notes: as for B1
B14: GpH7-A5/GpH7-B3 variant E333_16H/GpL16-k0 (antibody, human IgG1, kappa)
heavy 1: not shown
heavy 2: not shown
light: B1 light
notes: as for B1
B15: GpH7-A5/GpH7-B3 variant I332_01G/GpL16-k0 (antibody, human IgG1, kappa)
heavy 1: not shown
heavy 2: not shown
light: B1 light
notes: as for B1
B16: GpH7-A5/GpH7-B3 variant I332_09D/GpL16-k0 (antibody, human IgG1, kappa)
heavy 1: not shown
heavy 2: not shown
light: B1 light
notes: as for B1
B17: GpH7-A5/GpH7-B3 variant I332_10E/GpL16-k0 (antibody, human IgG1, kappa)
heavy 1: not shown
heavy 2: not shown
light: B1 light
notes: as for B1
B18: GpH7-A5/GpH7-B3 variant I332_12R/GpL16-k0 (antibody, human IgG1, kappa)
heavy 1: not shown
heavy 2: not shown
light: B1 light
notes: as for B1
B19: GpH7-A5/GpH7-B3 variant K334_01G/GpL16-k0 (antibody, human IgG1, kappa)
heavy 1: not shown
heavy 2: not shown
light: B1 light
notes: as for B1
B20: GpH7-A5/GpH7-B3 variant E333_09D/GpL16-k0 (antibody, human IgG1, kappa)
heavy 1: not shown
heavy 2: not shown
light: B1 light
notes: one H chain altered; also called He Ab E333_09D
B21: GpH7-A5/GpH7-B3 variant H268_02A/GpL16-k0 (antibody, human IgG1, kappa)
heavy 1: not shown
heavy 2: not shown
light: B1 light
notes: one H chain altered; also called He Ab H268_02A
B22: GpH7-A5/GpH7-B3 variant I332_01G/GpL16-k0 (antibody, human IgG1, kappa)
heavy 1: not shown
heavy 2: not shown
light: B1 light
notes: one H chain altered; also called He Ab I332_01G
B23: GpH7-A5/GpH7-B3 variant I336_02A/GpL16-k0 (antibody, human IgG1, kappa)
heavy 1: not shown
heavy 2: not shown
light: B1 light
notes: one H chain altered; also called He Ab I336_02A
B24: GpH7-A5/GpH7-B3 variant I336_03V/GpL16-k0 (antibody, human IgG1, kappa)
heavy 1: not shown
heavy 2: not shown
light: B1 light
notes: one H chain altered; also called He Ab I336_03V
B25: GpH7-A5/GpH7-B3 variant I336_06M/GpL16-k0 (antibody, human IgG1, kappa)
heavy 1: not shown
heavy 2: not shown
light: B1 light
notes: one H chain altered; also called He Ab I336_06M
B26: GpH7-A5/GpH7-B3 variant I336_18N/GpL16-k0 (antibody, human IgG1, kappa)
heavy 1: not shown
heavy 2: not shown
light: B1 light
notes: one H chain altered; also called He Ab I336_18N
B27: GpH7-A5/GpH7-B3 variant K326_07I/GpL16-k0 (antibody, human IgG1, kappa)
heavy 1: not shown
heavy 2: not shown
light: B1 light
notes: one H chain altered; also called He Ab K326_07I
B28: GpH7-A5/GpH7-B3 variant K326_08L/GpL16-k0 (antibody, human IgG1, kappa)
heavy 1: not shown
heavy 2: not shown
light: B1 light
notes: one H chain altered; also called He Ab K326_08L
B29: GpH7-A5/GpH7-B3 variant K334_01G/GpL16-k0 (antibody, human IgG1, kappa)
heavy 1: not shown
heavy 2: not shown
light: B1 light
notes: one H chain altered; also called He Ab K334_01G
B30: GpH7-A5/GpH7-B3 variant K334_09D/GpL16-k0 (antibody, human IgG1, kappa)
heavy 1: not shown
heavy 2: not shown
light: B1 light
notes: one H chain altered; also called He Ab K334_09D
B31: GpH7-A5/GpH7-B3 variant Q295_14T/GpL16-k0 (antibody, human IgG1, kappa)
heavy 1: not shown
heavy 2: not shown
light: B1 light
notes: one H chain altered; also called He Ab Q295_14T
B32: GpH7-A5/GpH7-B3 variant S267_02A/GpL16-k0 (antibody, human IgG1, kappa)
heavy 1: not shown
heavy 2: not shown
light: B1 light
notes: one H chain altered; also called He Ab S267_02A
B33: GpH7-A5/GpH7-B3 variant S267_09D/GpL16-k0 (antibody, human IgG1, kappa)
heavy 1: not shown
heavy 2: not shown
light: B1 light
notes: one H chain altered; also called He Ab S267_09D
B34: GpH7-A5/GpH7-B3 variant S298_14T/GpL16-k0 (antibody, human IgG1, kappa)
heavy 1: not shown
heavy 2: not shown
light: B1 light
notes: one H chain altered; also called He Ab S298_14T
B35: GpH7-A5/GpH7-B3 variant S324_15Y/GpL16-k0 (antibody, human IgG1, kappa)
heavy 1: not shown
heavy 2: not shown
light: B1 light
notes: one H chain altered; also called He Ab S324_15Y
B36: GpH7-A5/GpH7-B3 variant S324_16H/GpL16-k0 (antibody, human IgG1, kappa)
heavy 1: not shown
heavy 2: not shown
light: B1 light
notes: one H chain altered; also called He Ab S324_16H
B37: GpH7-A5/GpH7-B3 variant S337_09D/GpL16-k0 (antibody, human IgG1, kappa)
heavy 1: not shown
heavy 2: not shown
light: B1 light
notes: one H chain altered; also called He Ab S337_09D
B38: GpH7-A5/GpH7-B3 variant S337_10E/GpL16-k0 (antibody, human IgG1, kappa)
heavy 1: not shown
heavy 2: not shown
light: B1 light
notes: one H chain altered; also called He Ab S337_10E
B39: GpH7-A5/GpH7-B3 variant S337_18N/GpL16-k0 (antibody, human IgG1, kappa)
heavy 1: not shown
heavy 2: not shown
light: B1 light
notes: one H chain altered; also called He Ab S337_18N
B40: GpH7-A5/GpH7-B3 variant T335_07I/GpL16-k0 (antibody, human IgG1, kappa)
heavy 1: not shown
heavy 2: not shown
light: B1 light
notes: one H chain altered; also called He Ab T335_07I
B41: GpH7-A5/GpH7-B3 variant T335_10E/GpL16-k0 (antibody, human IgG1, kappa)
heavy 1: not shown
heavy 2: not shown
light: B1 light
notes: one H chain altered; also called He Ab T335_10E

Biological target: T2, FcγRIIIa extracellular domain with C-terminal His tag (human, UniProt P08637 17-208)
T2 construct: extracellular domain; also called FcgRIIIa; 3a
Test: SPR (Biacore); He/Con_3a divided by He/Con_2b (FcγRIIIa against FcγRIIb)
Method: (§1) The heterodimerized antibodies He Abs in which one of the H chains was introduced with an alteration were assayed for their binding activities to each activating FcγR and inhibitory FcγR according to the method described in Example 4. […] The activating FcγRs in FIGS. 26, 27, 28, and 29 are FcγRIa, FcγRIIa (R), FcγRIIa (H), and FcγRIIIa, respectively.
(§2) Analysis of interaction between objective antibody and the FcγR was carried out using Biacore T100 (GE Healthcare). HBS-EP+ (GE Healthcare) was used as the running buffer, and the measurement temperature was set to 25° C. Chips produced by immobilizing the antigen peptide by the amine coupling method to a Series S Sencor Chip CM5 (GE Healthcare), or alternatively, chips produced by allowing preliminarily biotinylated antigen peptides to interact with and immobilize onto a Series S Sensor Chip SA (certified) (GE Healthcare) were used. Antibodies of interest were captured onto an antigen peptide-immobilized chip, and allowed to interact to each FcγR diluted with running buffer. To regenerate and repeatedly use the chip, the antibodies captured on the chip were washed off by reacting 10 mM glycine-HCl, pH 1.5.
T2 sequence (P08637 17-208): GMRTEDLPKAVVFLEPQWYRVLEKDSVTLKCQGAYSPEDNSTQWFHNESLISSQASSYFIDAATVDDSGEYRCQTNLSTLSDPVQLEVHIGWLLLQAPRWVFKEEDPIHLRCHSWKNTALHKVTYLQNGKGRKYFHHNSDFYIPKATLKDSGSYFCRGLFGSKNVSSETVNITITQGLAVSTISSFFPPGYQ

| He_3a/2b (IIIa/IIb) | Binder |
| --- | --- |
| 2.18 ratio | B1 |
| 2.53 ratio | B2 |
| 1.93 ratio | B3 |
| 1.59 ratio | B4 |
| 1.76 ratio | B5 |
| 1.53 ratio | B6 |
| 1.77 ratio | B7 |
| 1.21 ratio | B8 |
| 1.32 ratio | B9 |
| 1.37 ratio | B10 |
| 1.21 ratio | B11 |
| 1.26 ratio | B12 |
| 1.26 ratio | B13 |
| 1.24 ratio | B14 |
| 1.27 ratio | B15 |
| 1.41 ratio | B16 |
| 1.63 ratio | B17 |
| 1.55 ratio | B18 |
| 1.31 ratio | B19 |

Biological target: FcγRIIIa extracellular domain with C-terminal His tag (human, UniProt P08637 17-208)
Test: SPR (Biacore), one H chain altered; HeCon Ab GpH7-A5/GpH7-B3/GpL16-k0 = 100
Target sequence in this assay (P08637 17-208): as above

| He/Con_3a | Binder |
| --- | --- |
| 112% | B20 |
| 122% | B21 |
| 111% | B22 |
| 111% | B23 |
| 112% | B24 |
| 109% | B25 |
| 104% | B26 |
| 139% | B27 |
| 114% | B28 |
| 121% | B29 |
| 160% | B30 |
| 115% | B31 |
| 150% | B32 |
| 181% | B33 |
| 113% | B34 |
| 101% | B35 |
| 104% | B36 |
| 110% | B37 |
| 105% | B38 |
| 104% | B39 |
| 107% | B40 |
| 107% | B41 |

Biological target: T1, FcγRIIb extracellular domain with …
Test: SPR (Biacore), antibody captured on antigen peptide chip, FcγR as analyte; GpH7-A5/GpH7-B3/GpL16-k0 = 100
Method: as §1, §2

| He/Con_2b (relative binding activity) | Binder |
| --- | --- |
| 73.4 % of control | B1 |
| 12.5 % of control | B2 |
| 52.4 % of control | B3 |
| 92.8 % of control | B4 |
| 80.5 % of control | B5 |
| 67.1 % of control | B6 |
| 70.5 % of control | B7 |
| 70.1 % of control | B8 |
| 95 % of control | B9 |
| 76.1 % of control | B10 |
| 81.4 % of control | B11 |
| 83.8 % of control | B12 |
| 81.8 % of control | B13 |
| 83.3 % of control | B14 |
| 87.1 % of control | B15 |
| 147 % of control | B16 |
| 142 % of control | B17 |
| 48.9 % of control | B18 |
| 92.5 % of control | B19 |

Biological target: T2, FcγRIIIa extracellular domain with …
Test: as above
Method: as §1, §2

| He/Con_3a (relative binding activity) | Binder |
| --- | --- |
| 160 % of control | B1 |
| 31.7 % of control | B2 |
| 101 % of control | B3 |
| 147 % of control | B4 |
| 142 % of control | B5 |
| 103 % of control | B6 |
| 124 % of control | B7 |
| 84.6 % of control | B8 |
| 125 % of control | B9 |
| 104 % of control | B10 |
| 98.2 % of control | B11 |
| 105 % of control | B12 |
| 103 % of control | B13 |
| 103 % of control | B14 |
| 111 % of control | B15 |
| 207 % of control | B16 |
| 233 % of control | B17 |
| 75.9 % of control | B18 |
| 121 % of control | B19 |
